Test results: EP2411513B1

Molecular target: CD11b/CD18 receptor on J774A.1 murine monocytes/macrophages (murine) (UniProt P05555)
Test: cell-based or functional assay

With “CyaA/233OVA/K860R/AC- (from UniProt J7QLC0 1-1706)” the Lysis of J774A.1 cells (% of AC-) was 72 % of AC-.
